In the test the test system is HEK293FT cells transfected with TF library. The test can be described thus: Screening of TF condensates based on fluorescent puncta. Particulars: Figure 1B numerical data; TF library screen, one value per transcriptional factor. Format: cell-based. A digest of the protocol:
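HEK293FT cells were reverse-transfected with Flag- or GAL4-tagged TF plasmids (1.6 μg/ml, PEI). After 60 h, cells were cultured 12 h with or without glucose, then fixed and immunostained with anti-Flag or anti-GAL4 and Alexa 488 secondaries. Fluorescent puncta were imaged over fifty random fields per well by high-content imaging.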

B1: SSX3 (protein, UniProt Q99909 1-188, looked up)
Protein SSX3: MNGDDTFARRPTVGAQIPEKIQKAFDDIAKYFSKEEWEKMKVSEKIVYVYMKRKYEAMTKLGFKAILPSFMRNKRVTDFQGNDFDNDPNRGNQVQRPQMTFGRLQGIFPKIMPKKPAEEGNVSKEVPEASGPQNDGKQLCPPGKPTTSEKINMISGPKRGEHAWTHRLRERKQLVIYEEISDPEEDDE
Consider B1, for which the “Z score of condensed fraction” value amounted to 0.2674.

B2: SRY (protein, UniProt Q05738 1-392, looked up)
Sex-determining region Y …: MEGHVKRPMNAFMVWSRGERHKLAQQNPSMQNTEISKQLGCRWKSLTEAEKRPFFQEAQRLKILHREKYPNYKYQPHRRAKVSQRSGILQPAVASTKLYNLLQWDRNPHAITYRQDWSRAAHLYSKNQQSFYWQPVDIPTGHLQQQQQQQQQQQFHNHHQQQQQFYDHHQQQQQQQQQQQQFHDHHQQKQQFHDHHQQQQQFHDHHHHHQEQQFHDHHQQQQQFHDHQQQQQQQQQQQFHDHHQQKQQFHDHHHHQQQQQFHDHQQQQQQFHDHQQQQHQFHDHPQQKQQFHDHPQQQQQFHDHHHQQQQKQQFHDHHQQKQQFHDHHQQKQQFHDHHQQQQQFHDHHQQQQQQQQQQQQQFHDQQLTYLLTADITGWKGIKHCTGPDPEPF
As to B2, the “Z score of condensed fraction” value is -0.331.

B3: STAT5A (protein, UniProt P42229 1-794, looked up)
Signal transducer and …: MAGWIQAQQLQGDALRQMQVLYGQHFPIEVRHYLAQWIESQPWDAIDLDNPQDRAQATQLLEGLVQELQKKAEHQVGEDGFLLKIKLGHYATQLQKTYDRCPLELVRCIRHILYNEQRLVREANNCSSPAGILVDAMSQKHLQINQTFEELRLVTQDTENELKKLQQTQEYFIIQYQESLRIQAQFAQLAQLSPQERLSRETALQQKQVSLEAWLQREAQTLQQYRVELAEKHQKTLQLLRKQQTIILDDELIQWKRRQQLAGNGGPPEGSLDVLQSWCEKLAEIIWQNRQQIRRAEHLCQQLPIPGPVEEMLAEVNATITDIISALVTSTFIIEKQPPQVLKTQTKFAATVRLLVGGKLNVHMNPPQVKATIISEQQAKSLLKNENTRNECSGEILNNCCVMEYHQATGTLSAHFRNMSLKRIKRADRRGAESVTEEKFTVLFESQFSVGSNELVFQVKTLSLPVVVIVHGSQDHNATATVLWDNAFAEPGRVPFAVPDKVLWPQLCEALNMKFKAEVQSNRGLTKENLVFLAQKLFNNSSSHLEDYSGLSVSWSQFNRENLPGWNYTFWQWFDGVMEVLKKHHKPHWNDGAILGFVNKQQAHDLLINKPDGTFLLRFSDSEIGGITIAWKFDSPERNLWNLKPFTTRDFSIRSLADRLGDLSYLIYVFPDRPKDEVFSKYYTPVLAKAVDGYVKPQIKQVVPEFVNASADAGGSSATYMDQAPSPAVCPQAPYNMYPQNPDHVLDQDGEFDLDETMDVARHVEELLRRPMDSLDSRLSPPAGLFTSARGSLS
With B3, the “Z score of condensed fraction” value is given as -0.6398.

B4: SSX5 (protein, UniProt O60225 1-188, looked up)
Protein SSX5: MNGDDAFVRRPRVGSQIPEKMQKAFDDIAKYFSEKEWEKMKASEKIIYVYMKRKYEAMTKLGFKATLPPFMRNKRVADFQGNDFDNDPNRGNQVEHPQMTFGRLQGIFPKITPEKPAEEGNDSKGVPEASGPQNNGKQLRPSGKLNTSEKVNKTSGPKRGKHAWTHRVRERKQLVIYEEISDPQEDDE
Turning to B4, the “Z score of condensed fraction” value came to 0.09353.

Values taken from paper PMC11574045, “A cofactor-induced repressive type of transcription factor condensation can be induced by synthetic peptides to suppress tumorigenesis” (The EMBO Journal, 2024).
